The test system of assay [1] is PLAP expression AR42J cells. Put plainly: β cell differentiation promoting activity using human placenta alkaline phosphatase expression AR42J cells, Example 20. Type of assay: cell-based. Conditions: 5 days incubation, read-out: BTC activity EC50. The procedure:
100 μL of these suspensions were inoculated to 96 well plates and incubated for 5 days at 37° C. in carbon dioxide gas incubators (5% carbon dioxide gas, 95% air). After 5 days, the culture supernatant were treated for 30 minutes at 65° C., and 50 μL was then added to 96-well microplates containing 50 μL of 2×SEAP (2M diethanolamine, 1 mM MgCl2, 20 mM homoarginine). 10 μL of 20 mg/mL p-nitrophenylphosphoric acid (Sigma) was added, and a reaction was brought about for 16 hours at 37° C. The ratio between EGF activity and the BTC activity of all the muteins decreased to about 5% of that of the Met-80 residue betacellulin, and was about the same as that of the Met-76 residue betacellulin, with no apparent influence by the N terminal deletion.

The test system of assay [2] is PLAP expression AR42J cells. The experiment in a line: Selection of PLAP expression AR42J clones: alkaline phosphatase activity with and without betacellulin. Type of assay: cell-based. Conditions: 20 ng/mL Met-80 residue betacellulin, 4 days culture. As for the experimental part:
(§1) The differentiation promoting activity into β cells was also determined using AR42J cells transformed with the vector having alkaline phosphatase which had been ligated as a reporter downstream of the insulin promoter. Specifically, cells which have differentiated into β cells by addition of betacellulin produce alkaline phosphatase. As a result, by assaying the alkaline phosphatase activity, the differentiation promoting activity into β cells can be quantitatively assayed.
The pMCneopolyA plasmid (Stratagene) containing the neor gene of TnS and the PLAP expression plasmid pTB1898 were simultaneously introduced into AR42J cells using the transfection reagent TransIT™-LT1 (Mirus, PenVera Corporation). The plasmid introduced cells were then cultured for 2 days in DMEM supplemented with 10% fetal calf serum, and the culture was then continued in selection medium supplemented with 800 μg/mL G418 (geneticin, Gibco BRL). Clones were isolated by limiting dilution of cells growing with G418 resistance.
Cells of each clone were seeded to 24 well plates and cultured for 4 days with and without the addition of 20 ng/mL Met-80 residue betacellulin. The supernatant was collected and heat treated for 30 minutes at 65° C., and the alkaline phosphatase activity in the media was then assayed. Clones showing increased alkaline phosphatase activity with the addition of 80-residue betacellulin were selected.

For assay [3], the target named is T1, EGF receptor (A431 cells, high EGF receptor expression line) (Homo sapiens, UniProt P00533).
T1 construct: human squamous epithelial carcinoma cells A431 (high EGF receptor expression line); endogenous in cells; host or cells: A431 human squamous epithelial carcinoma cells (intact, adherent)
Put plainly: EGF binding assay using A431 cells (inhibition of 125I-EGF binding). As to conditions: for IC50: A431 cells, 0.25 nM 125I-EGF, 90 minutes at 4° C.; for EGF/BTC relative to Met-BTC80: ratio between EGF activity and BTC activity, Met-BTC80 = 100%. The procedure:
Cell growth promoting activity was assayed by means of the inhibiting activity of binding to ^125I-EGF using human squamous epithelial carcinoma cells A431 (high EGF receptor expression line).
Specifically, 100 μL of A431 cells suspended to a concentration of 10^5 cells/mL using Dulbecco's modified Eagle MEM (DMEM) medium supplemented with 10% fetal calf serum were inoculated to 96 well plates and cultured for 2 days at 37° C. in carbon dioxide gas incubators (5% carbon dioxide gas and 95% air). […] The mixtures were allowed to stand for 90 minutes at 4° C., and then washed 3 times with 200 μL of binding medium, and the cells were lysed in 200 μL of 0.1 N sodium hydroxide aqueous solution containing 1% SDS. The cell lysate was then transferred to scintillation vials, 1 mL of Scintillator A (Wako Pure Chemicals) was added, and the inhibiting activity of binding to ^125I-EGF was assayed with a scintillation counter.

For assay [4], the system named is AR42J cells. Put plainly: β cell differentiation promoting activity using AR42J cells (anti-insulin immunofluorescence), Example 9. Conditions: 5 days incubation, anti-insulin antibody/FITC staining (FIG. 5). Type of assay: cell-based. From the text: Cells of the AR42J cell line derived from pancreatic cancer induced by chemical carcinogens (Christophe, Am. J. Physiol., 266: G963 (1994)) were suspended to a concentration of 10^5 cells/mL using Dulbecco's modified Eagle MEM medium containing 10% fetal calf serum and the Met-77 residue betacellulin prepared in Example 3, the Met-76 residue betacellulin prepared in Example 6, or the Met-80 residue betacellulin prepared in accordance with the method in Japanese Unexamined Patent Application (Kokai) H10-191989. 500 μL of these suspensions were inoculated to chamber slides and incubated for 5 days at 37° C. in carbon dioxide gas incubators (5% carbon dioxide gas, 95% air). After 5 days, the cells were washed once with PBS, fixed in 10% formaldehyde, and treated for 5 min with 0.1% Triton X-100. Block Ace (Snow Brand, Japan) was then added for 40 minutes of blocking at room temperature. Anti-insulin antibodies (by Advanced Immunochemicals) diluted with 10% Block Ace were added, and a reaction was performed for 40 minutes at room temperature. 0.1% Triton X-100 was added, the reaction solution was allowed to stand for 5 minutes at room temperature, and the cells were then washed three times with PBS. FITC (fluorescein isothiocyanate) labeled anti-mouse IgG antibodies (Cappel) diluted with 10% Block Ace were added, and a reaction was brought about for 40 minutes. 0.1% Triton X-100 was added, the reaction solution was allowed to stand for 5 minutes, the cells were then washed three times with PBS, and they were then observed under a fluorescent microscope.

For assay [5], the target named is T2, EGF receptor on human squamous epithelial carcinoma cells A431 (human, UniProt P00533 25-1210).
T2 construct: whole, on cells; also called A431 cells (high EGF receptor expression line)
Put plainly: competition with 0.25 nM 125I-EGF on A431 cells. The procedure: The mixtures were allowed to stand for 90 minutes at 4° C., and then washed 3 times with 200 μL of binding medium, and the cells were lysed in 200 μL of 0.1 N sodium hydroxide aqueous solution containing 1% SDS.

Assay [6] concerns PLAP expression AR42J cells. Put plainly: β cell differentiation promoting activity using PLAP expression AR42J cells, Example 12. As to conditions: 5 days, varying concentrations (FIG. 6). Type of assay: cell-based. The procedure: as §1
The PLAP expression AR42J cells constructed in Example 11 were suspended to a concentration of 10^5 cells/mL using Dulbecco's modified Eagle MEM medium containing 10% fetal calf serum and varying concentrations of the Met-77 residue betacellulin prepared in Example 3, the Met-76 residue betacellulin prepared in Example 6, or the Met-80 residue betacellulin prepared in accordance with the method in Japanese Unexamined Patent Application (Kokai) H10-191989. 100 μL of these suspensions were inoculated to 96 well plates and incubated for 5 days at 37° C. in carbon dioxide gas incubators (5% carbon dioxide gas, 95% air). After 5 days, the supernatant was taken and treated for 30 minutes at 65° C., and 50 μL was added to 96-well microplates containing 50 μL of 2×SEAP (2M diethanolamine, 1 mM MgCl2, 20 mM homoarginine). […]

The test system of assay [7] is AR42J cells. The experiment in a line: β cell differentiation promoting activity using AR42J cells (anti-insulin immunofluorescence), Example 26. Type of assay: cell-based. Conditions: 5 days incubation. As for the experimental part: Cells of the AR42J cell line derived from pancreatic cancer induced by chemical carcinogens (Christophe, Am. J. Physiol., 266: G963 (1994)) were suspended to a concentration of 10^5 cells/mL in Dulbecco's modified Eagle MEM medium containing 10% fetal calf serum and one of hBTC50, Mutein A, Mutein B, or the 80-residue betacellulin (hBTC80) prepared in accordance with the method in Japanese Unexamined Patent Application (Kokai) H10-191989. 500 μL of these suspensions was inoculated on chamber slides and incubated for 5 days at 37° C. in carbon dioxide gas incubators (5% carbon dioxide gas, 95% air). After 5 days, the cells were washed once with PBS, fixed in 10% formaldehyde, and treated for 5 min with 0.1% Triton X-100. Block Ace (Snow Brand, Japan) was then added for 40 minutes of blocking at room temperature. Anti-insulin antibodies (by Advanced Immunochemicals) diluted with 10% Block Ace were added, and reacted for 40 minutes at room temperature. 0.1% Triton X-100 was added, the reaction solution was allowed to stand for 5 minutes at room temperature, and the cells were then washed three times with PBS. FITC (fluorescein isothiocyanate) labeled anti-mouse IgG antibodies (Cappel) diluted with 10% Block Ace were added, and a reaction was brought about for 40 minutes. 0.1% Triton X-100 was added, the reaction solution was allowed to stand for 5 minutes, the cells were then washed three times with PBS, and they were then observed under a fluorescent microscope.

The values below come from patent US6825165B1, “Betacellulin modification” (Takeda Chemical Industries, Ltd., priority 1998, dated 2004).

One may read the EC50 as the concentration at which the effect is half-maximal. With “BTC2-76: betacellulin mutein lacking one N terminal residue and four C terminal residues, SEQ ID NO: 37”, the EC50 in assay [1] turned out to be 0.12 nM.

In the case of “BTC24-76: betacellulin mutein lacking 23 N terminal residues and four C terminal residues, SEQ ID NO: 38”, the EC50 in assay [1] was determined as 0.03 nM.

As a reminder, the IC50 is the concentration needed to halve the response being measured. Higher therefore signals weaker potency. Consider “Met-BTC80: 80 residue human betacellulin (SEQ ID NO: 35) with N terminal Met, prepared by the method of Kokai H10-191989 [reference compound]”, for which the “PLAP activity (A 405), BTC added” value in assay [2] (clone AR1898-033, no BTC added: 0.034) is 0.366 A 405; in assay [2] (clone AR1898-053, no BTC added: 0.008) it was 0.089 A 405; in assay [2] (clone AR1898-0192, no BTC added: 0.077) it was 0.752 A 405. The molecule also had an IC50 in assay [3] of 1.2 nM. Also, the “EGF/BTC relative to Met-BTC80” value in assay [3] is 100.0%. In assay [1], the EC50 was determined as 0.07 nM. Also, the “Differentiation into insulin-producing β cells (stained cells under fluorescent microscope)” value in the assay with AR42J cells [4] is “cells which had differentiated into insulin-producing β cells were found”.

B1: Met-76 residue betacellulin (ligand)
chain: MDGNSTRSPETNGLLCGDPEENCAATTTQSKRKGHFSRCPKQYKHYCIKGRCRFVVAEQTPSCVCDEGYIGARCERV
notes: Lacks the four C-terminal residues (Asp Leu Phe Tyr); also called Met-BTC76; BTC1-76
As for B1, in assay [5], the IC50 was determined as 95.1 nM.

B2: Met-77 residue betacellulin: 77 residue betacellulin lacking three C terminal residues (SEQ ID NO: 1) with N terminal Met (protein)
chain: DGNSTRSPETNGLLCGDPEENCAATTTQSKRKGHFSRCPKQYKHYCIKGRCRFVVAEQTPSCVCDEGYIGARCERVD
modifications: N-terminal Met; Human
With B2, the “Promoting activity in inducing differentiation compared with Met-80 residue betacellulin” value in assay [6] was “virtually the same promoting activity in inducing differentiation as the Met-80 residue betacellulin”. For the same molecule, the “Differentiation into insulin-producing β cells (stained cells under fluorescent microscope)” value in the assay with AR42J cells [4] is “cells which had differentiated into insulin-producing β cells were found”.

B3: Met-BTC76: 76 residue betacellulin lacking four C terminal residues (SEQ ID NO: 2) with N terminal Met (protein)
chain: DGNSTRSPETNGLLCGDPEENCAATTTQSKRKGHFSRCPKQYKHYCIKGRCRFVVAEQTPSCVCDEGYIGARCERV
modifications: N-terminal Met; Human
B3: the “Promoting activity in inducing differentiation compared with Met-80 residue betacellulin” value in assay [6] is on record as “virtually the same promoting activity in inducing differentiation as the Met-80 residue betacellulin”. In assay [3], the IC50 was determined as 95.1 nM and the “EGF/BTC relative to Met-BTC80” value is 5.4%. For the same molecule, the EC50 in assay [1] turned out to be 0.3 nM. Moreover, the “Differentiation into insulin-producing β cells (stained cells under fluorescent microscope)” value in the assay with AR42J cells [4] is given as “cells which had differentiated into insulin-producing β cells were found”.

B4: Met-80 residue betacellulin (ligand)
chain: MDGNSTRSPETNGLLCGDPEENCAATTTQSKRKGHFSRCPKQYKHYCIKGRCRFVVAEQTPSCVCDEGYIGARCERVDLFY
notes: Prepared in E. coli by the method of Japanese Kokai H10-191989; The N-terminal Met is retained; also called Met-BTC80; hBTC80
In assay [5], B4 displayed an IC50 of 1.2 nM. Also, in the assay with AR42J cells [7] (anti-insulin antibody/FITC staining), the “Differentiation into insulin-producing β cells (stained cells under fluorescent microscope)” value is “cells which had differentiated into insulin-producing β cells, were found”. Further, the “Incidence of insulin-producing cells” value with AR42J cells [7] (comparison between the proteins) is listed as “no differences in the incidence of insulin-producing cells”.
